Experimental data published in patent publication US20250188184A1 (published 2025).
Changes are numbered by the printed parent chain.

B1: CD3.218 (AC3649) (bispecific antibody, V domains shown)
VH: EVQLVESGGGIVQPGGSLRLSCAASGFTFSTYAMNWVRQAPGKGLEWVGRIRSKYNNYATTYADSVKGRFTISRDDSKNTVYLQMNSLKTEDTAVYYCVRHENFGNSYVSWFAHWGQGTLVTVSS
VL: ELVVTQEPSLTVSPGGTVTLTCRSSNGAVTSSNYANWVQQKPGQAPRGLIGGTNKRAPGTPARFSGSLLGGKAALTLSGVQPEDEAVYYCALWYPNLWVFGGGTKLTVL
notes: paTCE with PSMA.262 VHH; crude lysate
B2: CD3.251 (AC3682) (bispecific antibody, V domains shown)
VH: B1 VH with S30N, Y55R, G68D
VL: B1 VL
notes: as for B1
B3: uTCE from AC3445 (PSMA.119-CD3.23) (bispecific antibody)
chain: GTSESATPESQVQLVESGGGVVQPGRSLRLSCAASGRTFGIYVMGWVRQAPGKEREFVAAISWSGSNRKVSDSVKGRFTISRDNSKNTLYLQMNSLRAEDTAVYYCAASNRLYGRTWYDFNESDYWGQGTQVTVSSGGGGSGGGSELVVTQEPSLTVSPGGTVTLTCRSSNGAVTSSNYANWVQQKPGQAPRGLIGGTNKRAPGTPARFSGSLLGGKAALTLSGVQPEDEAVYYCALWYPNLWVFGGGTKLTVLSESATPESGPGTSPGATPESGPGTSESATPEVQLLESGGGIVQPGGSLKLSCAASGFTFNTYAMNWVRQAPGKGLEWVARIRSKYNNYATYYADSVKDRFTISRDDSKNTVYLQMNNLKTEDTAVYYCVRHENFGNSYVSWFAHWGQGTLVTVSSGTATPESGPG
notes: release-segment residues left at the ends not specified
B4: uTCE from AC3928 (PSMA.350-CD3.23) (bispecific antibody)
chain: B3 chain with M44W, V47F, A59G, I61M, R111K, L112E
notes: release-segment residues left at the ends not specified; also called AMX500-P6 uTCE
B5: uTCE from AC3934 (PSMA.262-CD3.228) (bispecific antibody)
chain: GTSESATPESQVQLVESGGGVVQPGRSLRLSCAASGRTFGIYVWGWVRQAPGKEREFVGAISWSGSNRKVSDSVKGRFTISRDNSKNTLYLQMNSLRAEDTAVYYCAASNKLYGRTWYDFNESDYWGQGTQVTVSSGGGGSGGGSELVVTQEPSLTVSPGGTVTLTCRSSNGAVTSSNYANWVQQKPGQAPRGLIGGTNKRAPGTPARFSGSLLGGKAALTLSGVQPEDEAVYYCALWYPNLWVFGGGTKLTVLSESATPESGPGTSPGATPESGPGTSESATPEVQLVESGGGIVQPGGSLRLSCAASGFTFSTYAMNWVRQAPGKGLEWVGRIRTKRNNYATYYADSVKGRFTISRDDSKNTVYLQMNSLKTEDTAVYYCVRHENFGNSYVSWFAHWGQGTLVTVSSGTATPESGPG
notes: release-segment residues left at the ends not specified; also called AMX500-P7 uTCE

What was measured:
[1] = target: T1, human CD3 epsilon (human, UniProt P07766 23-126, limits assumed); test: Octet, crude lysate
T1 construct: also called huCD3e
Protocol: Pool 2 consisted of paTCE molecules each containing PSMA.262 and one of 64 CD3.23 mutation combination variants. Stability and affinity of the individually expressed molecules in the form of crude lysate was evaluated by Octet. […] The binding of these anti-CD3 molecules (CD3.227, CD3.228, CD3.229 and CD3.230) to human and cynomolgus CD3 was measured by Octet and the Tₘ was measured by Differential Scanning Fluorimetry. All variants were paired with PSMA.262 except for CD3.23 which was paired with PSMA.5.

[2] = target: T2, cynomolgus monkey PSMA (cynomolgus monkey, UniProt A0A2K5VNZ0 44-750); test: Octet, uTCE
T2 construct: also called cyPSMA; cyno PSMA

[3] = target: T3, human PSMA (human, UniProt Q04609 44-750, limits assumed); test: Octet, uTCE
T3 construct: other Octet runs used human PSMA-Fc; also called huPSMA; prostate-specific membrane antigen

[4] = target: T1, human CD3 epsilon; test: Octet, uTCE
[5] = target: T4, cynomolgus CD3 epsilon (cynomolgus monkey, UniProt Q95LI5 22-117, limits assumed); test: Octet, uTCE
T4 construct: also called cyCD3e
T4 sequence (looked up): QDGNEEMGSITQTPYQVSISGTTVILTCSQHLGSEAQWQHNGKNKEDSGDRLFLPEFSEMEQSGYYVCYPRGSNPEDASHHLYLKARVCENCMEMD

[6] = target: T2, cynomolgus monkey PSMA; test: Biacore, uTCE
[7] = target: T3, human PSMA; test: Biacore, uTCE
[8] = target: T1, human CD3 epsilon; test: Biacore, uTCE
[9] = target: T4, cynomolgus CD3 epsilon; test: Biacore, uTCE

T3 sequence (Q04609 44-750 limits assumed): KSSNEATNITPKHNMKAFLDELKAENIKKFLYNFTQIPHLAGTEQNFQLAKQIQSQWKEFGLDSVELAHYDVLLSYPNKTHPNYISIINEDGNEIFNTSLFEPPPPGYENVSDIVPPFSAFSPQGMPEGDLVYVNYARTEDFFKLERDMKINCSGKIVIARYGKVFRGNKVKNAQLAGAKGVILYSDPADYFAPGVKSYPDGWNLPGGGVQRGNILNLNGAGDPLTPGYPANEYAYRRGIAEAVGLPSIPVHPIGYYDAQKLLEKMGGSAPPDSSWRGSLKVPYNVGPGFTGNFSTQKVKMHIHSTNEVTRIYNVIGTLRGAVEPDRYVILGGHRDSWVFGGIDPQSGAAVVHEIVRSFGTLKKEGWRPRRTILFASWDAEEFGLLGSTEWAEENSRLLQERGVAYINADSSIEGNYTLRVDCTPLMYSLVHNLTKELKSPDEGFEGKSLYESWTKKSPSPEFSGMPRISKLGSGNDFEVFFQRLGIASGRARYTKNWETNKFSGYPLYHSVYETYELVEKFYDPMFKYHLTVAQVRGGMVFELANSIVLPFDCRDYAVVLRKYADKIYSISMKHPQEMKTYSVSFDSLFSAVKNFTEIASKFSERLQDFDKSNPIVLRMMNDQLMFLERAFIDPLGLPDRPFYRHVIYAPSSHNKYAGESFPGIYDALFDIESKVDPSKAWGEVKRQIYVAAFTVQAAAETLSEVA
T1 sequence (P07766 23-126 limits assumed): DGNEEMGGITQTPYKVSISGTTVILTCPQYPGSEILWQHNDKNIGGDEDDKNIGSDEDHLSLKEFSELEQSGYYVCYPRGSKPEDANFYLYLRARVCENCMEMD

| Binder | Kd [1] [nM] | Kd [2] [nM] | Kd [3] [nM] | Kd [4] [nM] | Kd [5] [nM] | Kd [6] [nM] | Kd [7] [nM] | Kd [8] [nM] | Kd [9] [nM] |
| --- | --- | --- | --- | --- | --- | --- | --- | --- | --- |
| B1 | 4.4 |  |  |  |  |  |  |  |  |
| B2 | 32.9 |  |  |  |  |  |  |  |  |
| B3 |  | 47.5 | 6.2 | 34.8 | 40 |  |  |  |  |
| B4 |  | 198 | 13.2 | 43 | 44.9 | 354 | 19 | 27.3 | 26.6 |
| B5 |  | 13.1 | 1.6 | 26.6 | 33.7 | 13 | 0.5 | 9.83 | 10.4 |
